Test results taken from US20240216518A1 (HARPOON THERAPEUTICS, published 2024).

Experiments:
FLT3 TriTAC = molecular target: T1, FLT3 TriTAC; assay: biolayer interferometry
T1 construct: Single-chain trispecific; also called constitutively active FLT3 TriTAC

[1] = molecular target: T2, stub:Active control; αCD19 T:A:C stub:Active; assay: ELISA on recombinant human CD3ε
T2 construct: Single-chain trispecific; also called TriTAC-XR active drug; constitutively active CD19 TriTAC
T2 sequence (chain, as listed by the source): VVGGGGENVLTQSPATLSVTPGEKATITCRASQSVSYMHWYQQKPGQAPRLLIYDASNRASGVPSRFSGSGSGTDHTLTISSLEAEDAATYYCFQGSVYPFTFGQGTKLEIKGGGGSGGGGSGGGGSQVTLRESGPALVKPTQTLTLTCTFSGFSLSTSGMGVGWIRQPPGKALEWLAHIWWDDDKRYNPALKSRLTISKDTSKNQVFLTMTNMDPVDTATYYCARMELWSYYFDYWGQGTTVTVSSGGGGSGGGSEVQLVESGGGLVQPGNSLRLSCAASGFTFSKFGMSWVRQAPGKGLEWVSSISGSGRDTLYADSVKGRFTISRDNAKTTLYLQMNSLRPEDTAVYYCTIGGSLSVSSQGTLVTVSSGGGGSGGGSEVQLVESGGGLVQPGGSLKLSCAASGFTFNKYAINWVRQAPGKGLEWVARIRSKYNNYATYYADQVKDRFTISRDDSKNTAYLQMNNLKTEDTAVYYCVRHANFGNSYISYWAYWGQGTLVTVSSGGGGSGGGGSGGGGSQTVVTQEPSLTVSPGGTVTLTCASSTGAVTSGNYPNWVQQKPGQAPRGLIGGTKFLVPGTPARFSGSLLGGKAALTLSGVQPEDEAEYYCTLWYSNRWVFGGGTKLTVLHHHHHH

T1 sequence (chain, as listed by the source): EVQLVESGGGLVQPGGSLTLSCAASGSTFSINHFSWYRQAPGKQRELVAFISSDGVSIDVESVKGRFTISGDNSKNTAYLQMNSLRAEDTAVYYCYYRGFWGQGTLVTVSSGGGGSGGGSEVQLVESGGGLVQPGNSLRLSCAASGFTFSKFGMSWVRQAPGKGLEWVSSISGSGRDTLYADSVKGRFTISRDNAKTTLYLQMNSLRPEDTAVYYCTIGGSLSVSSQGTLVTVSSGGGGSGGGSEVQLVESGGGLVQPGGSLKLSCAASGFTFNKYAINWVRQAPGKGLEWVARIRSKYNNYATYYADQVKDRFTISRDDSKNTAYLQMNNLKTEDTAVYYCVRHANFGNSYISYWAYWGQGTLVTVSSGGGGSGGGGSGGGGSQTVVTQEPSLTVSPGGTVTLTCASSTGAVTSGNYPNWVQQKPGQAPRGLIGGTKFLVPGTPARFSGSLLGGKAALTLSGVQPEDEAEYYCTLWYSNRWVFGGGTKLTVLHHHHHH

| Kd (FLT3 TriTAC) [nM] | binding result [1] | Binder |
| --- | --- | --- |
| 3.3 | – | cynomolgus CD3 (receptor) QDGNEEMGSITQTPYQVSISGTTVILTCSQHLGSEAQWQHNGKNKEDSGDRLFLPEFSEMEQSGYYVCYPRGSNPEDASHHLYLKARVCENCMEMD |
| 2.7 | – | cynomolgus FLT3 (receptor) NQDLPVIKCVLINHKNNDSSVGKSSSYPMVSESPEDLGCALRPQSAGTVYEAATVEVDVSASITLQVLVDTPGNISCLWVFKHSSLNCQPHFDVQNRGVVSMVILKMTETQAGEYLLFIQSEATNYTIVFTVSIRNTLLFTLRRPYFRKMENQDALVCISESVPEPIVEWVLCDSQGESCKEESPAVVKKEEKVLHELFGTDIRCCARNELGRECTRLFTIDLNQTPQTTLPQLFLKVGEPLWIRCKAVHVNHGFGLTWELENKALEEGSYFEMSTYSTNRTMIRILFAFVSSVARNDTGYYTCSSSKHPSQSALVTIVEKGFINATNSSEDYEIDQYEEFCFSVRFKAYPQIRCTWTFSRKAFPCEQKALDDGYSVSKFCNHKHQPGEYIFHAENGDAQFTKMFTLNIRRKPQVLAEASASQASCSSDGYPLPSWTWKKCSDKSPNCTEDIPEGVWNRKANRKVFGQWVSSSTLNMSEAMKGFLVKCCAYNSLGTSCETILLNSPGPFPFIQDS |
| – | binds | recombinant human CD3ε (receptor, UniProt P07766 23-126, looked up) DGNEEMGGITQTPYKVSISGTTVILTCPQYPGSEILWQHNDKNIGGDEDDKNIGSDEDHLSLKEFSELEQSGYYVCYPRGSKPEDANFYLYLRARVCENCMEMD |
| 4.4 | – | cynomolgus albumin (other, UniProt A2V9Z4 25-608, looked up, also called cynomolgus serum albumin) DTHKSEVAHRFKDLGEEHFKGLVLVAFSQYLQQCPFEEHVKLVNEVTEFAKTCVADESAENCDKSLHTLFGDKLCTVATLRETYGEMADCCAKQEPERNECFLQHKDDNPNLPPLVRPEVDVMCTAFHDNEATFLKKYLYEVARRHPYFYAPELLFFAARYKAAFAECCQAADKAACLLPKLDELRDEGKASSAKQRLKCASLQKFGDRAFKAWAVARLSQKFPKAEFAEVSKLVTDLTKVHTECCHGDLLECADDRADLAKYMCENQDSISSKLKECCDKPLLEKSHCLAEVENDEMPADLPSLAADYVESKDVCKNYAEAKDVFLGMFLYEYARRHPDYSVMLLLRLAKAYEATLEKCCAAADPHECYAKVFDEFQPLVEEPQNLVKQNCELFEQLGEYKFQNALLVRYTKKVPQVSTPTLVEVSRNLGKVGAKCCKLPEAKRMPCAEDYLSVVLNRLCVLHEKTPVSEKVTKCCTESLVNRRPCFSALELDEAYVPKAFNAETFTFHADMCTLSEKEKQVKKQTALVELVKHKPKATKEQLKGVMDNFAAFVEKCCKADDKEACFAEEGPKFVAASQAALA |
